# In article PMC6894070, “The Plasmodium falciparum Hsp70-x chaperone assists the heat stress response of the malaria parasite” (The FASEB Journal, 2019):
# Tests used:
# [1] = biological target: Plasmodium falciparum Hsp70-x (PfHsp70-x), full-length construct aa 25-679 (P. falciparum, UniProt K7NTP5 25-679); test: cell-based or functional assay
# [2] = biological target: T1, human heat shock cognate protein 70 (Hsc70), full length (human, UniProt P11142 1-646); test: NMR titration; 15N-labelled PFA0660wJ titrated with unlabelled chaperone; HSQC peak intensity changes; 25°C; 20 mM sodium phosphate pH 7.4, 150 mM NaCl, 2 mM DTT; settings: both partners purified
# T1 construct: also called HSPA8; heat shock protein family A (hspa) member 8
# T1 sequence (P11142 whole entry): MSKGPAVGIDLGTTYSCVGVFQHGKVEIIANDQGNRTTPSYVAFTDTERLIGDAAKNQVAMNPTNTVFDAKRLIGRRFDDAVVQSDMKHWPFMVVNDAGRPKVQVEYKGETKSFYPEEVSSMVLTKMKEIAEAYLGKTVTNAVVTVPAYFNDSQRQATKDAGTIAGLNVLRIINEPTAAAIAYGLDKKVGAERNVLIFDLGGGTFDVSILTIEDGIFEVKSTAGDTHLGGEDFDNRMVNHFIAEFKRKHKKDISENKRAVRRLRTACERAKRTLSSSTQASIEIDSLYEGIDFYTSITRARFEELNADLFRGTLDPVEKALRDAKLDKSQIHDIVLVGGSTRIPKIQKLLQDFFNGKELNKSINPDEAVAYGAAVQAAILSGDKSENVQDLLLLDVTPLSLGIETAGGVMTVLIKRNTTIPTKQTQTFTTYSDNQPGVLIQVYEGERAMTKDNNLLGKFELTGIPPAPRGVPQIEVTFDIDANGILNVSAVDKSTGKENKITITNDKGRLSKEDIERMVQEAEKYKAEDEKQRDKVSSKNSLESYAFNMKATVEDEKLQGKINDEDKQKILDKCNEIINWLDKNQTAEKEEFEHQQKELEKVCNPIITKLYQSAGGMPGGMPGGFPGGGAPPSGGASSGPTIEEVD
binder,measurement,setting,value
"J-domain of P. falciparum Hsp40 cochaperone PFA0660w (PFA0660wJ), aa 81-148 (domain or fragment, UniProt Q8I2E1 81-148, looked up, PFA0660w, P. falciparum, pf3d7_0113700, UniProt Q8I2E1, J-domain aa 81-148; codon-optimized synthetic DNA; 15N-labelled (or 13C,15N-labelled) in the NMR assays; unlabelled in the ATP hydrolysis assays; also called PFA0660w J-domain; not shown: His6, N-terminal, cleaved) MDYYTLLGVDKGCSEDDLRRAYLKLAMKWHPDKHVNKGSKVEAEEKFKNICEAYSVLSDNEKRVKYDL",fold change in ATP hydrolysis activity of PfHsp70-x upon titration of the J-domain (5 μM chaperone),[1],~2 fold
same,binding result,[2],binds
